In US20170073690A1 (CEMM FORSCHUNGZENTRUM FUER MOLEKULARE MEDIZIN, published 2017):
Positions count from the first letter of the chain named.

B1: SLC38A9 N-terminal cytoplasmic tail deletion construct (amino acids 1-111, or amino acids 1-112) (other)
chain: MANMNSDSRHLGTSEVDHERDPGPMNIQFEPSDLRSKRPFCIEPTNIVNVNHVIQRVSDHASAMNKRIHYYSRLTTPADKALIAPDHVVPAPEECYVYSPLGSAYKLQSYTE
notes: also called cytoplasmic region of SLC38A9; not shown: N-terminal HA-containing tag (Strep-HA, vector pTO-SII-HA-GW)
B2: SLC38A9 cytoplasmic region with motif 38RPF40 mutated to alanine (other)
chain: B1 chain with R38A, P39A, F40A
notes: also called 38RPF40 mutant (cytoplasmic region); not shown: N-terminal HA-containing tag
B3: SLC38A9 cytoplasmic region with motif 70YYSR73 mutated to alanine (other)
chain: B1 chain with Y70A, Y71A, S72A, R73A
notes: also called 70YYSR73 mutant (cytoplasmic region); not shown: N-terminal HA-containing tag
B4: SLC38A9 cytoplasmic region with motif 85PDH87 mutated to alanine (other)
chain: B1 chain with P85A, D86A, H87A
notes: also called 85PDH87 mutant (cytoplasmic region); not shown: N-terminal HA-containing tag
B5: SLC38A1 (other)
chain: MMHFKSGLELTELQNMTVPEDDNISNDSNDFTEVENGQINSKFISDRESRRSLTNSHLEKKKCDEYIPGTTSLGMSVFNLSNAIMGSGILGLAFALANTGILLFLVLLTSVTLLSIYSINLLLICSKETGCMVYEKLGEQVFGTTGKFVIFGATSLQNTGAMLSYLFIVKNELPSAIKFLMGKEETFSAWYVDGRVLVVIVTFGIILPLCLLKNLGYLGYTSGFSLSCMVFFLIVVIYKKFQIPCIVPELNSTISANSTNADTCTPKYVTFNSKTVYALPTIAFAFVCHPSVLPIYSELKDRSQKKMQMVSNISFFAMFVMYFLTAIFGYLTFYDNVQSDLLHKYQSKDDILILTVRLAVIVAVILTVPVLFFTVRSSLFELAKKTKFNLCRHTVVTCILLVVINLLVIFIPSMKDIFGVVGVTSANMLIFILPSSLYLKITDQDGDKGTQRIWAALFLGLGVLFSLVSIPLVIYDWACSSSSDEGH
notes: N-terminally SII-HA tagged bait
B6: RAGD (enzyme, human, UniProt Q9NQL2 1-400, looked up)
chain: MSQVLGKPQPQDEDDAEEEEEEDELVGLADYGDGPDSSDADPDSGTEEGVLDFSDPFSTEVKPRILLMGLRRSGKSSIQKVVFHKMSPNETLFLESTNKICREDVSNSSFVNFQIWDFPGQIDFFDPTFDYEMIFRGTGALIFVIDSQDDYMEALARLHLTVTRAYKVNTDINFEVFIHKVDGLSDDHKIETQRDIHQRANDDLADAGLEKIHLSFYLTSIYDHSIFEAFSKVVQKLIPQLPTLENLLNIFISNSGIEKAFLFDVVSKIYIATDSTPVDMQTYELCCDMIDVVIDISCIYGLKEDGAGTPYDKESTAIIKLNNTTVLYLKEVTKFLALVCFVREESFERKGLIDYNFHCFRKAIHEVFEVRMKVVKSRKVQNRLQKKKRATPNGTPRVLL
notes: Named in the results only as one of the four RAG GTPases; also called RAG GTPase D
B7: full length SLC38A9 with motif 38RPF40 mutated to alanine (other)
chain: MANMNSDSRHLGTSEVDHERDPGPMNIQFEPSDLRSKAAACIEPTNIVNVNHVIQRVSDHASAMNKRIHYYSRLTTPADKALIAPDHVVPAPEECYVYSPLGSAYKLQSYTEGYGKNTSLVTIFMIWNTMMGTSILSIPWGIKQAGFTTGMCVIILMGLLTLYCCYRVVKSRTMMFSLDTTSWEYPDVCRHYFGSFGQWSSLLFSLVSLIGAMIVYWVLMSNFLFNTGKFIFNFIHHINDTDTILSTNNSNPVICPSAGSGGHPDNSSMIFYANDTGAQQFEKWWDKSRTVPFYLVGLLLPLLNFKSPSFFSKFNILGTVSVLYLIFLVTFKAVRLGFHLEFHWFIPTEFFVPEIRFQFPQLTGVLTLAFFIHNCIITLLKNNKKQENNVRDLCIAYMLVTLTYLYIGVLVFASFPSPPLSKDCIEQNFLDNFPSSDTLSFIARIFLLFQMMTVYPLLGYLARVQLLGHIFGDIYPSIFHVLILNLIIVGAGVIMACFYPNIGGIIRYSGAACGLAFVFIYPSLIYIISLHQEERLTWPKLIFHVFIIILGVANLIVQFFM
notes: also called 38RPF40 mutant (full length); not shown: N-terminal HA-containing tag
B8: full length SLC38A9 with motif 70YYSR73 mutated to alanine (other)
chain: B7 chain with A38R, A39P, A40F, Y70A, Y71A, S72A, R73A
notes: also called 70YYSR73 mutant (full length); not shown: N-terminal HA-containing tag
B9: full length SLC38A9 with motif 85PDH87 mutated to alanine (other)
chain: B7 chain with A38R, A39P, A40F, P85A, D86A, H87A
notes: also called 85PDH87 mutant (full length); not shown: N-terminal HA-containing tag

Columns and labels:
RAGA [1] = target: T1, RAGA (human, UniProt Q7L523 1-313); test: anti-HA co-IP of tagged deletion construct from HEK293T, immunoblot (FIG. 2D)
T1 construct: Endogenous, or N-terminally tagged as bait; RAG GTPases act as heterodimers of RAGA/B with RAGC/D; also called RAG GTPase A
Source text: (§1) Proteins filtered using SAINT³⁵ that interacted with at least five bait proteins were retained. Previously published interactors of the Ragulator complex and RAG GTPases that were also detected are highlighted. b, Tabular view of spectral counts (maximum of biological replicate) and sequence coverage (percentage) of the core Ragulator network and published interactors detected. c HEK293T cells were transfected with the indicated constructs or empty vector (−). […] Anti-HA immunoprecipitates and cell extracts were analysed by immunoblot with the indicated antibodies. Deletion constructs are labelled with the number of the encoded amino acids (d) and point mutants with the amino acid motif substituted to alanine (e).
(§2) Cells were transfected with Polyfect (Qiagen) and used for experiments after 24 hours. For lysis, cells were resuspended in Nonidet-40 lysis buffer (1% NP-40, 50 mM Hepes pH7.4, 250 mM NaCl, 5 mM EDTA, Halt phosphatase inhibitor cocktail (ThermoScientific), one tablet of EDTA-free protease inhibitor (Roche) per 50 ml) on ice for 5 min. Lysates were cleared by centrifugation in a microcentrifuge (13000 r.p.m., 10 min, 4 C). Proteins were quantified with BCA (Pierce). […]

LAMTOR1 [2] = target: T2, LAMTOR1 (human, UniProt Q6IAA8 2-161); test: as above
T2 construct: Endogenous in HEK293/HEK293T cells, or C-terminally tagged (V5 or SII-HA) when used as bait
Source text: as §1, §2

LAMTOR3 [3] = target: T3, LAMTOR3 (human, UniProt Q9UHA4 1-124, limits assumed); test: anti-HA co-IP of tagged point mutant from HEK293T, immunoblot (FIG. 2E)
T3 construct: also called SII-HA-LAMTOR 3
Source text: as §1
(§3) Cells were transfected with Polyfect (Qiagen) and used for experiments after 24 hours. For lysis, cells were resuspended in Nonidet-40 lysis buffer (1% NP-40, 50 mM Hepes pH7.4, 250 mM NaCl, 5 mM EDTA, Halt phosphatase inhibitor cocktail (ThermoScientific), one tablet of EDTA-free protease inhibitor (Roche) per 50 ml) on ice for 5 min. Lysates were cleared by centrifugation in a microcentrifuge (13000 r.p.m., 10 min, 4 C). Proteins were quantified with BCA (Pierce). For immunoprecipitations, lysates were precleared on Sepharose6 beads (Sigma) (40 min. with rotation, 4° C.) and then incubated either with HA- or V5-coupled beads (3 h with rotation, 4° C.) or with primary antibody and protein G-sepharose (GE healthcare) (14 h with rotation, 4° C.). Beads were recovered and washed four times with lysis buffer before analysis by SDS-PAGE and immunoblotting.

RAGC [4] = target: T4, RAGC (human, UniProt Q9HB90 1-399); test: as above
T4 construct: Endogenous, or N-terminally tagged as bait; also called RAG GTPase C
Source text: as §1, §3

RAGA [5] = target: T1, RAGA; test: as above
Source text: as §1, §3

LAMTOR1 [6] = target: T2, LAMTOR1; test: as above
Source text: as §1, §3

LAMTOR4 = LAMTOR4 (human, UniProt Q0VGL1 1-99); test: TAP-LC-MS/MS, SII-HA-tagged bait, HEK293 Flp-In TREx cells
Procedure: (§4) Tandem affinity STREP-HA purifications were performed as previously described³. In brief, cells were stimulated with doxycycline/tetracycline for 24 h to induce expression of SII-HA-tagged bait proteins. Induction of SII-HA-LAMTOR 3 was combined with 9 h starvation in serum free medium. Protein complexes were isolated by TAP using streptavidin agarose followed by elution with biotin, and a second purification step using HA-agarose beads. Proteins were eluted with 100 mM formic acid, neutralized with triethylammonium bicarbonate (TEAB) and digested with trypsin, and the peptides were analysed by LC-MS/MS.

LAMTOR5 = LAMTOR5 (human, UniProt O43504 1-91); test: as above
Procedure: as §4

SLC38A1 = target: B5; test: as above
Procedure: as §4

SLC38A2 = target: T5, SLC38A2 (human, UniProt Q96QD8 1-506); test: as above
T5 construct: N-terminally SII-HA tagged bait
T5 sequence (looked up): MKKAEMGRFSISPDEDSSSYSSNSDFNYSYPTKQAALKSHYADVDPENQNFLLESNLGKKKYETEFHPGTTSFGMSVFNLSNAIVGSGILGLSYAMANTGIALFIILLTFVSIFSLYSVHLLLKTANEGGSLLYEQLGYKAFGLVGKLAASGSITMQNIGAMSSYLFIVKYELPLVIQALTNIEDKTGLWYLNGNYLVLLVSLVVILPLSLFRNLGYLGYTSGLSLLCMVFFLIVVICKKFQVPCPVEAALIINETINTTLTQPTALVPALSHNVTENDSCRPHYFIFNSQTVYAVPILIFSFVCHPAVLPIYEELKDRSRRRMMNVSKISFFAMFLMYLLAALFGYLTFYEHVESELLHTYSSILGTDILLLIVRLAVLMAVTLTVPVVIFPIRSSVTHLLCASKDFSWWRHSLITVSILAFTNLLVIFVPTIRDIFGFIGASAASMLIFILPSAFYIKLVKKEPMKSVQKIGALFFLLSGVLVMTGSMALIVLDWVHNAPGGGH
Procedure: as §4

LAMTOR3 [7] = target: T3, LAMTOR3; test: anti-HA co-IP of tagged full length point mutant from HEK293T, immunoblot (FIG. 9C)
RAGC [8] = target: T4, RAGC; test: as above
RAGA [9] = target: T1, RAGA; test: as above
LAMTOR1 [10] = target: T2, LAMTOR1; test: as above

T1 sequence (Q7L523 whole entry): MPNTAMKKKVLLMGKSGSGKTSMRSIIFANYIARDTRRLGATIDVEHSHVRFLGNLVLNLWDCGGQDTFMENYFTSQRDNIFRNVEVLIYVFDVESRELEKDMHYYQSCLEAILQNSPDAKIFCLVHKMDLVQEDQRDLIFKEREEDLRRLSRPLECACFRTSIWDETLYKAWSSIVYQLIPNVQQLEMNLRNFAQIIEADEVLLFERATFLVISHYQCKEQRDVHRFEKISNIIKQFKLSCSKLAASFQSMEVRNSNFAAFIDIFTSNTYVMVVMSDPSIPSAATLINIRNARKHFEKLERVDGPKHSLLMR
T3 sequence (Q9UHA4 whole entry): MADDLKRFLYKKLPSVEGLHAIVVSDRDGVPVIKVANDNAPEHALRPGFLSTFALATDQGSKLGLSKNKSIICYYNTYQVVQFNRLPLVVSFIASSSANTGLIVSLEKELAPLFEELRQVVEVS
T4 sequence (Q9HB90 whole entry): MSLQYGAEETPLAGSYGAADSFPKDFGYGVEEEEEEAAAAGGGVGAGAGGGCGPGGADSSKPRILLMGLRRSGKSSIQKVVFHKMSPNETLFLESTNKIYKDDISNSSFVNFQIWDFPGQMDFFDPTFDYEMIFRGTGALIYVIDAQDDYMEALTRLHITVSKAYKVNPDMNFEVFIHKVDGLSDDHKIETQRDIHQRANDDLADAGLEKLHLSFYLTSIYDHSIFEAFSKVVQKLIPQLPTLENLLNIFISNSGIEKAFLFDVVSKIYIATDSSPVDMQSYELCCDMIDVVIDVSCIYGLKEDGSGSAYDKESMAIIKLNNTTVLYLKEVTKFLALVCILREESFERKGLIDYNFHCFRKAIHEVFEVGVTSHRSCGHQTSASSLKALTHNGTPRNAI
T2 sequence (Q6IAA8 2-161 limits assumed): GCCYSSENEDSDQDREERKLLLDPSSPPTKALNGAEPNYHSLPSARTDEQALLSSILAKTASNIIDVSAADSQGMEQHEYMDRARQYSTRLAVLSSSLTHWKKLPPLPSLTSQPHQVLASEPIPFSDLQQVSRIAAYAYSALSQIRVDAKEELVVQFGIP

Binder | binding result (LAMTOR3 [3]) | binding result (RAGC [4]) | binding result (RAGA [5]) | binding result (LAMTOR1 [6]) | binding result (LAMTOR3 [7]) | binding result (RAGC [8]) | binding result (RAGA [9]) | binding result (LAMTOR1 [10]) | further results
B1 | – | – | – | – | – | – | – | – | binding result (RAGA [1]): binds; binding result (LAMTOR1 [2]): binds
B2 | no binding | no binding | no binding | no binding | – | – | – | – | –
B3 | no binding | no binding | no binding | no binding | – | – | – | – | –
B4 | no binding | no binding | no binding | no binding | – | – | – | – | –
B5 | – | – | – | – | – | – | – | – | binding result (LAMTOR4): no binding; binding result (LAMTOR5): no binding
B6 | – | – | – | – | – | – | – | – | binding result (SLC38A1): no binding; binding result (SLC38A2): no binding
B7 | – | – | – | – | no binding | no binding | no binding | no binding | –
B8 | – | – | – | – | no binding | no binding | no binding | no binding | –
B9 | – | – | – | – | no binding | no binding | no binding | no binding | –
